Data on 1 substance can be found in US6429305.

The assay deals with growth hormone receptor on ZFL cells (zebrafish liver cell line) (zebrafish). As to the kind of experiment: cell-based or functional assay.

In turn, “human growth hormone (from UniProt P01241 27-217) (ligand)” yielded an increase in cell proliferation relative to no growth hormone added (MTS-formazan conversion assay, ZFL cells) of 13.7%.
